Tests used:
[1] = system: pAKT^S473; assay: pAKT S473 signaling in 3T3-F442A cells (phosphokinase array, western blot); type: cell-based
Experimental: (§1) Western blots and molecular analyses. For western blotting, homogenized tissues or whole-cell lysates, samples were lysed in RIPA buffer containing protease inhibitor cocktail (Roche) and phosphatase inhibitor cocktail (Roche). Cell lysates were centrifuged at 14,000×g for 15 min and supernatants were prepared in 4×LDS Sample Buffer (Invitrogen) and separated by SDS-PAGE and transferred to Immobilon 0.45 μm membranes (Millipore). For Western blotting of plasma samples, 1 μl of plasma was prepared in 2× sample buffer (Invitrogen) with reducing agent, boiled, and analyzed using Western blot against indicated antibody. Protein kinase array (R&D systems ARY003B) was performed according to the manufacturers' description. All antibodies used in this paper are described in STAR methods.

[2] = system: pAKT^S473; assay: pAKT S473 western blot in human SGBS adipocytes and human primary skeletal muscle cells; type: cell-based
Experimental: as §1

[3] = system: human primary skeletal muscle cells; assay: 2-deoxy-3H-glucose uptake in human primary skeletal muscle cells; type: cell-based; conditions: for induction of glucose uptake compared with control cells: 1 h
[4] = system: human SGBS adipocytes; assay: 2-deoxy-3H-glucose uptake in human SGBS adipocytes; type: cell-based
Experimental: (§2) Mouse and human pre-adipocytes culture and differentiation. Inguinal fat pads from 4-8 week old C57BL/6J male and female mice were dissected and mechanically digested for 10 min using spring scissors. Digested tissues were incubated in WAT isolation buffer (10 ml PBS, 2.4 U/ml dispase II (#04942078001, Roche), 10 mg/ml collagenase D (#11088858001, Roche) at 37° C. for 45 min. 20 mL growth media was added and the tissue suspension was filtered through a 100-μm cell strainer and centrifuged at 600×g for 5 min. The cell pellets were resuspended in 20 mL growth media, filtered through a 40-μm cell strainer, centrifuged at 600×g for 5 min, resuspended in 10 mL growth media, and plated in 10-cm collagen-coated dishes. The cells were cultured in growth media (DMEM/F-12 Glutamax, Thermo Fisher Scientific #10565018) supplemented with 10% fetal bovine serum. Two days post-confluency, differentiation was induced with growth media containing 1 μM rosiglitazone, 0.5 mM isobutylmethylxanthine, 1 μM dexamethasone, 5 μg/mL insulin. After two days, cells were re-fed with growth media containing 1 μM rosiglitazone and 5 μg/mL insulin. Cells were fully differentiated after 6-8 days. For ISM1 knockdown or overexpression in primary adipocytes using adenovirus, 500 μL crude virus was mixed with 500 μL fresh growth media containing 1 μM rosiglitazone and 5 μg/mL insulin was added to each well at day 2 of differentiation. At day 4, virus-containing media was removed and 500 μL fresh growth media without stimulators was added to each well. SGBS cells were differentiated as described previously (Fischer-Posovszky et al., 2008; Wabitsch et al., 2001). Briefly, cells were cultured in growth media DMEM/F-12 Glutamax, supplemented with 10% fetal bovine serum, 33 uM biotin, and 17 uM pantothenate. Two days post confluency, differentiation was induced with serum-free DMEM/F12 media containing 33 uM biotin, 17 uM pantothenate, 0.01 mg/ml transferrin, 20 nM insulin, 100 nM cortisol, 0.2 nM triiodothyronine, 25 nM dexamethasone, 0.25 mM isobutyl methylxanthine, and 2 μM rosiglitazone. After four days, cells were re-fed with growth media containing 0.01 mg/ml transferrin 20 nM insulin, 100 nM cortisol, 0.2 nM triiodothyronine. Cells were fully differentiated after day 8-10.
(§3) Glucose uptake. Glucose uptake was performed as previously described (You et al., 2017). Briefly, 2-Deoxy-d-[2,6-3H]-glucose was purchased from PerkinElmer NEN radiochemicals. Fully differentiated adipocytes were washed with KRH buffer and starved in 0.5% BSA in KRH buffer for 4 h. Indicated concentrations of insulin or ISM1 were added at indicated time points. Cells were treated with a mixture of 500 μM 2-deoxy-D-glucose and 1.71 μCimL^−1 2-Deoxy-D-[1,2-3H (N)]-glucose for another 10 min followed by three washes using ice cold KRH buffer containing 200 mM glucose. The passive glucose uptake in the presence of 50 uM CytoB was less than 12% of the total glucose uptake. Cells were solubilized in 1% SDS and radioactivity was measured by liquid scintillation counting.

[5] = system: primary mouse adipocytes; assay: 2-deoxy-3H-glucose uptake in primary mouse adipocytes; type: cell-based
Experimental: as §2, §3

[6] = system: AML12 hepatocytes; assay: Lipogenesis assay (3H-acetate incorporation into lipids) in AML12 hepatocytes; type: cell-based, mouse; conditions: 24 h
Experimental: Lipogenesis Assay. Primary hepatocytes or AML12 hepatocytes were washed twice with warm PBS and starved in serum-free DMEM overnight. Indicated concentrations of insulin with or without ISM1 were added at the same time. After 24 h, a mixture of 10 μM cold acetate and 2 μCi [3H]-Acetate (#NET003H005MC, PerkinElmer) was added to each well and cells were incubated for another 4 hr. Cells were washed with PBS twice and lysed using 0.1 N hydrogen chloride. Lipids were extracted by 2:1 chloroform-methanol (v/v). After centrifugation at 3000×g for 10 min, the lower phase was transferred to scintillation vials and radioactivity was measured by liquid scintillation counting.

[7] = Observation of hypoglycemia in overexpression or pharmacological administration studies; type: in vivo, mouse; conditions: overexpression or pharmacological administration of ISM1
[8] = system: IGF-I-Receptor β Tyr1135/1136 or Insulin receptor Tyr1150/1151; assay: Western blot of phosphorylated insulin and IGF receptors in 3T3-F442A cells; type: cell-based; conditions: 100 nM; 2 minutes
Experimental: as §1

[9] = system: pAKT^S473; assay: pAKT S473 western blot in primary mouse adipocytes; type: cell-based
Experimental: Mouse and human pre-adipocytes culture and differentiation. Inguinal fat pads from 4-8 week old C57BL/6J male and female mice were dissected and mechanically digested for 10 min using spring scissors. Digested tissues were incubated in WAT isolation buffer (10 ml PBS, 2.4 U/ml dispase II (#04942078001, Roche), 10 mg/ml collagenase D (#11088858001, Roche) at 37° C. for 45 min. 20 mL growth media was added and the tissue suspension was filtered through a 100-μm cell strainer and centrifuged at 600×g for 5 min. The cell pellets were resuspended in 20 mL growth media, filtered through a 40-μm cell strainer, centrifuged at 600×g for 5 min, resuspended in 10 mL growth media, and plated in 10-cm collagen-coated dishes. The cells were cultured in growth media (DMEM/F-12 Glutamax, Thermo Fisher Scientific #10565018) supplemented with 10% fetal bovine serum. Two days post-confluency, differentiation was induced with growth media containing 1 μM rosiglitazone, 0.5 mM isobutylmethylxanthine, 1 μM dexamethasone, 5 μg/mL insulin. After two days, cells were re-fed with growth media containing 1 μM rosiglitazone and 5 μg/mL insulin. […]
Western blots and molecular analyses. […] For Western blotting of plasma samples, 1 μl of plasma was prepared in 2× sample buffer (Invitrogen) with reducing agent, boiled, and analyzed using Western blot against indicated antibody. […]

[10] = system: pAKTS473; assay: In vivo pAKT S473 signaling in tissues after I.V. injection in DIO mice; design: species or system mouse
Experimental: as §1

[11] = insulin 1 nM up to 100 nM with 25 nM or 50 nM ISM1

B1: ISM1: recombinant mouse ISM1 protein with a C-terminal myc-his tag generated in mammalian HEK 293 Expi cells (protein, UniProt A2ATD1 30-454, looked up)
Isthmin-1: SDRQDAAAGNNNLNLESDSTSETSFPLSKEAPEEHQVVHQPFPRQRFPPETGHPSLQRDGPRSFLLDLPNFPDLSKADINGQNPNIQVTIEVVDGPDSEAEKDQHPENKPSWSLPAPDWRAWWQRSLSLARTNSGDQDDKYDSTSDDSNFLSVPRGWDRPAPGHRTFETKEQPEYDSTDGEGDWSLWSVCSVTCGNGNQKRTRSCGYACIATESRTCDRPNCPGIEDTFRTAATEVSLLAGSEEFNATKLFEVDMDSCERWMSCKSEFLKKYMHKVINDLPSCPCSYPTEVAYSTADIFDRIKRKDFRWKDASGPKEKLEIYKPTARYCIRSMLSLESTTLAAQHCCYGDNMQLITRGKGAGTPNLISTEFSAELHYKVDVLPWIICKGDWSRYNEARPPNNGQKCTESPSDEDYIKQFQEAREY
modifications: C-terminal myc-His tag
notes: recombinant mouse ISM1 protein with a C-terminal myc-his tag generated in mammalian HEK 293 Expi cells
Q: What does the source list for B1?
A: pAKT^S473 bioactivity compared with commercially available ISM1 protein (R&D systems) ([1]; 100 nM, 5 min): comparable bioactivities; top hit of phosphokinase array (43 proteins) ([1]; 100 nM, 5 min): phosphorylated protein kinase B (PKB)/AKT at S473; dose at which dose-dependent increase in pAKT^S473 phosphorylation starts ([1]; increasing doses, 5 min): 50 nM; AKT activity of ISM1 combined with insulin [1, 11]: additional effect; potentiation of insulin on AKT activity [1, 11]: no evidence of potentiation; pAKT^S473 induction ([2]; human SGBS adipocytes): induced pAKT^S473; pAKT^S473 induction ([2]; human primary skeletal muscle cells (HSMC), 100 nM, 5 min): induced pAKT^S473; induction of glucose uptake compared with control cells ([3]; 50 nM): 5 fold; induction of glucose uptake compared with control cells ([3]; 200 nM): 7 fold; effect on glucose uptake relative to that of insulin ([3]; human skeletal muscle cells): 70%; effect on glucose uptake relative to that of insulin ([4]; SGBS cells): 50-100%; increase in glucose uptake ([4]; [3H]-2-deoxy-glucose, starting from 20 nM, 30 minutes): 1.5 fold; concentration from which glucose uptake is increased ([4]; doses ranging from 10 nM to 200 nM): 20 nM; glucose uptake when added to insulin ([5]; 100 nM ISM1 in cells treated with 50 nM insulin, 1 h): further increased insulin-induced uptake; increase in glucose uptake ([5]; 100 nM, absence of insulin, across multiple experiments): around 1.5 fold; desensitization of glucose uptake on prolonged treatment ([5]; 24 h vs 4 h protein treatment, 100 nM): does not lead to desensitization; effect on glucose uptake relative to that of insulin ([5]; primary mouse adipocytes): < 50%; lipogenesis at supraphysiological insulin ([6]; 50 nM ISM1 in presence of 200 nM insulin): sufficient to reduce lipogenesis; insulin-induced lipogenesis ([6]; 50 and 100 nM ISM1 with 50 nM insulin): reverse the insulin-induced lipogenesis dose-dependently; hypoglycemia [7]: do not observe hypoglycemia; IGF-R/IR phosphorylation [8]: no phosphorylation; pAKT^S473 induction ([9]; differentiated primary mouse brown adipocytes): induced pAKT^S473; pAKT^S473 induction ([9]; white adipocytes): induced pAKT^S473; pAKTS473 signaling in BAT and liver ([10]; 10 mg/kg I.V., 10 min time point): transient inductions; pAKTS473 signaling in iWAT and skeletal muscle ([10]; 10 mg/kg I.V., DIO mice): activates pAKTS473 signaling at 30 and 60 min; dose inducing the highest pAKTS473 response ([10]; doses ranging from 0.1 mg/kg to 10 mg/kg, iWAT): 5 mg/kg
